To fix the notation:
B1: Protein root UVB sensitive 1, chloroplastic (Arabidopsis thaliana (Mouse-ear cress)), Q7X6P3 (parent)
chain: MSCSYLLSGDASVVASRRWSDVSSRQRLFLPRQSLRQPSGSSFSRCVRLVANVNDHFSKQSLATRNCLASVFSADLGGSNGNNDNGNGGGGGGDGGGDNSDDSSFDLRYLCFLLLGLSCFFHFRLSAASAIAKDQNSDSNGDAVKETVWEVRGSKRKRLVPDFVKDEFVSEESAFELSSSLTPENLLAQCRNLLTQFLLPEGFPNSVTSDYLDYSLWRGVQGIASQISGVLATQSLLYAVGLGKGAIPTAAAINWVLKDGIGYLSKIMLSKYGRHFDVHPKGWRLFADLLENAAFGMEMLTPVFPQFFVMIGAAAGAGRSAAALIQAATRSCFNAGFASQRNFAEVIAKGEAQGMVSKSVGILLGIVVANCIGTSTSLALAAFGVVTTIHMYTNLKSYQCIQLRTLNPYRASLVFSEYLISGQAPLIKEVNDEEPLFPTVRFSNMKSPEKLQDFVLSSEAKAAAADIEERLQLGSKLSDVIHNKEEAIALFDLYRNEGYILTEHKGRFCVMLKESSTPQDMLRSLFQVNYLYWLEKNAGIEPASTYSDCKPGGRLHISLDYVRREFEHAKEDSESVGWVTEGLIARPLPTRIRLGHDRELLLSSPNSS
partner: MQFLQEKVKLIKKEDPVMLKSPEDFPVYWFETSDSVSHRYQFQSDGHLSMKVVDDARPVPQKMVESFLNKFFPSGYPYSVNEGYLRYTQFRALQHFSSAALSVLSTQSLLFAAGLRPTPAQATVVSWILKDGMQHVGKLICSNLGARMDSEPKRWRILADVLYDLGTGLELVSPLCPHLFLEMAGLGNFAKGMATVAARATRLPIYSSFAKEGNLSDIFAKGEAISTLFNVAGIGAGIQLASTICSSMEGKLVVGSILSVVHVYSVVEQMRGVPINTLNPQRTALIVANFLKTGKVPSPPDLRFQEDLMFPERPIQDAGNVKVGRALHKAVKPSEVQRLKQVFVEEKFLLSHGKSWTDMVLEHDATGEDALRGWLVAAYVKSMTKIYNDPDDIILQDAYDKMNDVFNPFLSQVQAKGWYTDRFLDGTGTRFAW

Variants of B1 are the subject of the test. The note with it: with rus2_arath RUS2, Q9SJX7.
On to E298G, for which the “effect of a mutation on the interaction” value was “decreasing interaction”.
Regarding N342G, the “effect of a mutation on the interaction” value is “decreasing interaction”.
For K281G the value was “disrupting interaction”.
As for K349G, the “effect of a mutation on the interaction” value was “disrupting interaction”.

Values taken from IntAct's records for PubMed 19515790.
